Experimental data reported in patent US7078514 (dated 2006).
No end group written: not given here.

Biological target: T1, recombinant chicken GHRH receptor (chicken)
T1 construct: Full-length cloned receptor; also called cGHRH receptor; cloned chicken GHRH receptor
T1 chain: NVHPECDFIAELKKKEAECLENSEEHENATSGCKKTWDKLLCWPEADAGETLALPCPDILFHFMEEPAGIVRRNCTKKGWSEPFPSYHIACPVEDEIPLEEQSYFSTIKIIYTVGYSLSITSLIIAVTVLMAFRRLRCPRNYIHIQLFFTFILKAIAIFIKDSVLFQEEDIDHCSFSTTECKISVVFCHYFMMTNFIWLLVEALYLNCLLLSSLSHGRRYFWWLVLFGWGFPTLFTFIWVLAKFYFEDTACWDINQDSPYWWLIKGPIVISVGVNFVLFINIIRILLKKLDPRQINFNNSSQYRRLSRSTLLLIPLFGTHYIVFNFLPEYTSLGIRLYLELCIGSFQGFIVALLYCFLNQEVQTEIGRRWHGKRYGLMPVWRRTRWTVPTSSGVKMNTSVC
Experiment: competition with labeled hGHRH at recombinant chicken GHRH receptor

B1: chicken GHRH polypeptide (asparagine^21), previously reported chicken GHRH (ligand)
peptide: HADGIFSKAYRKLLGQLSARNYLHSLMAKRVGGASSGLGDEAEPLS
modifications: not fully specified
notes: also called cGHRH(Asp^21); published polypeptide
  binding result: no binding
